How the values were obtained:
[1] = test system: Apolipoprotein CIII purified from plasma derived from multiple human donors
[2] = test system: apolipoprotein CIII fragment corresponding to amino acids 41-79 (SEQ ID NO:4), designated CR001
apolipoprotein CIII fragment corresponding to amino acids 41-79 (SEQ ID NO:4), designated CR001, sequence (chain, as listed by the source): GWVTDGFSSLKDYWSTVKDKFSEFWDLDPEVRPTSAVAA

Apolipoprotein CIII purified from plasma derived from multiple human donors, sequence (chain, as listed by the source): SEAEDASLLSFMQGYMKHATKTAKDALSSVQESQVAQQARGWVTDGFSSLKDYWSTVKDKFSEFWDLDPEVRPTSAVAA

## factor Xa
[1]
  factor Xa activity when tested alone on the chromogenic substrate S-2765: neither apoliproprotein CIII nor the apolipoprotein CIII fragment have any direct inhibitory effect on factor Xa activity
[2]
  factor Xa activity when tested alone on the chromogenic substrate S-2765: neither apoliproprotein CIII nor the apolipoprotein CIII fragment have any direct inhibitory effect on factor Xa activity

From patent US20050208610
